In patent US20210388087A1 (Chugai, published 2021):

B1: H183/L072 VH D101M (antibody, name in Kabat numbering, V domains shown)
VH: QVQLVESGGGLVQPGRSLRLSCAASGFTFSNAWMHWVRQAPGKGLEWVAQIKDKGNAYAAYYAPSVKGRFTISRDDSKNSIYLQMNSLKTEDTAVYYCHYVHYASASTVLPAFGVMAWGQGTTVTVSS
VL: DIVMTQSPLSLPVTPGEPASISCQASQELVHMNRNTYLHWYQQKPGQAPRLLIYKVSNRFPGVPDRFSGSGSGTDFTLKISRVEAEDVGVYYCAQGTSVPFTFGQGTKLEIK
B2: H183/L072 VH F27E (antibody, name in Kabat numbering, V domains shown)
VH: QVQLVESGGGLVQPGRSLRLSCAASGETFSNAWMHWVRQAPGKGLEWVAQIKDKGNAYAAYYAPSVKGRFTISRDDSKNSIYLQMNSLKTEDTAVYYCHYVHYASASTVLPAFGVDAWGQGTTVTVSS
VL: DIVMTQSPLSLPVTPGEPASISCQASQELVHMNRNTYLHWYQQKPGQAPRLLIYKVSNRFPGVPDRFSGSGSGTDFTLKISRVEAEDVGVYYCAQGTSVPFTFGQGTKLEIK
B3: H183/L072 VH F27Q (antibody, name in Kabat numbering, V domains shown)
VH: QVQLVESGGGLVQPGRSLRLSCAASGQTFSNAWMHWVRQAPGKGLEWVAQIKDKGNAYAAYYAPSVKGRFTISRDDSKNSIYLQMNSLKTEDTAVYYCHYVHYASASTVLPAFGVDAWGQGTTVTVSS
VL: DIVMTQSPLSLPVTPGEPASISCQASQELVHMNRNTYLHWYQQKPGQAPRLLIYKVSNRFPGVPDRFSGSGSGTDFTLKISRVEAEDVGVYYCAQGTSVPFTFGQGTKLEIK
B4: H183/L072 VH F27V (antibody, name in Kabat numbering, V domains shown)
VH: QVQLVESGGGLVQPGRSLRLSCAASGVTFSNAWMHWVRQAPGKGLEWVAQIKDKGNAYAAYYAPSVKGRFTISRDDSKNSIYLQMNSLKTEDTAVYYCHYVHYASASTVLPAFGVDAWGQGTTVTVSS
VL: DIVMTQSPLSLPVTPGEPASISCQASQELVHMNRNTYLHWYQQKPGQAPRLLIYKVSNRFPGVPDRFSGSGSGTDFTLKISRVEAEDVGVYYCAQGTSVPFTFGQGTKLEIK
B5: H183/L072 VH F27Y (antibody, name in Kabat numbering, V domains shown)
VH: QVQLVESGGGLVQPGRSLRLSCAASGYTFSNAWMHWVRQAPGKGLEWVAQIKDKGNAYAAYYAPSVKGRFTISRDDSKNSIYLQMNSLKTEDTAVYYCHYVHYASASTVLPAFGVDAWGQGTTVTVSS
VL: DIVMTQSPLSLPVTPGEPASISCQASQELVHMNRNTYLHWYQQKPGQAPRLLIYKVSNRFPGVPDRFSGSGSGTDFTLKISRVEAEDVGVYYCAQGTSVPFTFGQGTKLEIK
B6: H183/L072 VH F27L (antibody, name in Kabat numbering, V domains shown)
VH: QVQLVESGGGLVQPGRSLRLSCAASGLTFSNAWMHWVRQAPGKGLEWVAQIKDKGNAYAAYYAPSVKGRFTISRDDSKNSIYLQMNSLKTEDTAVYYCHYVHYASASTVLPAFGVDAWGQGTTVTVSS
VL: DIVMTQSPLSLPVTPGEPASISCQASQELVHMNRNTYLHWYQQKPGQAPRLLIYKVSNRFPGVPDRFSGSGSGTDFTLKISRVEAEDVGVYYCAQGTSVPFTFGQGTKLEIK
B7: H183/L072 VH F27M (antibody, name in Kabat numbering, V domains shown)
VH: QVQLVESGGGLVQPGRSLRLSCAASGMTFSNAWMHWVRQAPGKGLEWVAQIKDKGNAYAAYYAPSVKGRFTISRDDSKNSIYLQMNSLKTEDTAVYYCHYVHYASASTVLPAFGVDAWGQGTTVTVSS
VL: DIVMTQSPLSLPVTPGEPASISCQASQELVHMNRNTYLHWYQQKPGQAPRLLIYKVSNRFPGVPDRFSGSGSGTDFTLKISRVEAEDVGVYYCAQGTSVPFTFGQGTKLEIK
B8: H183/L072 VH F27W (antibody, name in Kabat numbering, V domains shown)
VH: QVQLVESGGGLVQPGRSLRLSCAASGWTFSNAWMHWVRQAPGKGLEWVAQIKDKGNAYAAYYAPSVKGRFTISRDDSKNSIYLQMNSLKTEDTAVYYCHYVHYASASTVLPAFGVDAWGQGTTVTVSS
VL: DIVMTQSPLSLPVTPGEPASISCQASQELVHMNRNTYLHWYQQKPGQAPRLLIYKVSNRFPGVPDRFSGSGSGTDFTLKISRVEAEDVGVYYCAQGTSVPFTFGQGTKLEIK
B9: H183/L072 VH F27G (antibody, name in Kabat numbering, V domains shown)
VH: QVQLVESGGGLVQPGRSLRLSCAASGGTFSNAWMHWVRQAPGKGLEWVAQIKDKGNAYAAYYAPSVKGRFTISRDDSKNSIYLQMNSLKTEDTAVYYCHYVHYASASTVLPAFGVDAWGQGTTVTVSS
VL: DIVMTQSPLSLPVTPGEPASISCQASQELVHMNRNTYLHWYQQKPGQAPRLLIYKVSNRFPGVPDRFSGSGSGTDFTLKISRVEAEDVGVYYCAQGTSVPFTFGQGTKLEIK
B10: H183/L072 VH F27I (antibody, name in Kabat numbering, V domains shown)
VH: QVQLVESGGGLVQPGRSLRLSCAASGITFSNAWMHWVRQAPGKGLEWVAQIKDKGNAYAAYYAPSVKGRFTISRDDSKNSIYLQMNSLKTEDTAVYYCHYVHYASASTVLPAFGVDAWGQGTTVTVSS
VL: DIVMTQSPLSLPVTPGEPASISCQASQELVHMNRNTYLHWYQQKPGQAPRLLIYKVSNRFPGVPDRFSGSGSGTDFTLKISRVEAEDVGVYYCAQGTSVPFTFGQGTKLEIK
B11: H183/L072 VH F27N (antibody, name in Kabat numbering, V domains shown)
VH: QVQLVESGGGLVQPGRSLRLSCAASGNTFSNAWMHWVRQAPGKGLEWVAQIKDKGNAYAAYYAPSVKGRFTISRDDSKNSIYLQMNSLKTEDTAVYYCHYVHYASASTVLPAFGVDAWGQGTTVTVSS
VL: DIVMTQSPLSLPVTPGEPASISCQASQELVHMNRNTYLHWYQQKPGQAPRLLIYKVSNRFPGVPDRFSGSGSGTDFTLKISRVEAEDVGVYYCAQGTSVPFTFGQGTKLEIK
B12: H183/L072 VH F27S (antibody, name in Kabat numbering, V domains shown)
VH: QVQLVESGGGLVQPGRSLRLSCAASGSTFSNAWMHWVRQAPGKGLEWVAQIKDKGNAYAAYYAPSVKGRFTISRDDSKNSIYLQMNSLKTEDTAVYYCHYVHYASASTVLPAFGVDAWGQGTTVTVSS
VL: DIVMTQSPLSLPVTPGEPASISCQASQELVHMNRNTYLHWYQQKPGQAPRLLIYKVSNRFPGVPDRFSGSGSGTDFTLKISRVEAEDVGVYYCAQGTSVPFTFGQGTKLEIK
B13: H183/L072 VH F27A (antibody, name in Kabat numbering, V domains shown)
VH: QVQLVESGGGLVQPGRSLRLSCAASGATFSNAWMHWVRQAPGKGLEWVAQIKDKGNAYAAYYAPSVKGRFTISRDDSKNSIYLQMNSLKTEDTAVYYCHYVHYASASTVLPAFGVDAWGQGTTVTVSS
VL: DIVMTQSPLSLPVTPGEPASISCQASQELVHMNRNTYLHWYQQKPGQAPRLLIYKVSNRFPGVPDRFSGSGSGTDFTLKISRVEAEDVGVYYCAQGTSVPFTFGQGTKLEIK
B14: H183/L072 VH D101P (antibody, name in Kabat numbering, V domains shown)
VH: QVQLVESGGGLVQPGRSLRLSCAASGFTFSNAWMHWVRQAPGKGLEWVAQIKDKGNAYAAYYAPSVKGRFTISRDDSKNSIYLQMNSLKTEDTAVYYCHYVHYASASTVLPAFGVPAWGQGTTVTVSS
VL: DIVMTQSPLSLPVTPGEPASISCQASQELVHMNRNTYLHWYQQKPGQAPRLLIYKVSNRFPGVPDRFSGSGSGTDFTLKISRVEAEDVGVYYCAQGTSVPFTFGQGTKLEIK
B15: H183/L072 VH F27T (antibody, name in Kabat numbering, V domains shown)
VH: QVQLVESGGGLVQPGRSLRLSCAASGTTFSNAWMHWVRQAPGKGLEWVAQIKDKGNAYAAYYAPSVKGRFTISRDDSKNSIYLQMNSLKTEDTAVYYCHYVHYASASTVLPAFGVDAWGQGTTVTVSS
VL: DIVMTQSPLSLPVTPGEPASISCQASQELVHMNRNTYLHWYQQKPGQAPRLLIYKVSNRFPGVPDRFSGSGSGTDFTLKISRVEAEDVGVYYCAQGTSVPFTFGQGTKLEIK
B16: H183/L072 VH F27P (antibody, name in Kabat numbering, V domains shown)
VH: QVQLVESGGGLVQPGRSLRLSCAASGPTFSNAWMHWVRQAPGKGLEWVAQIKDKGNAYAAYYAPSVKGRFTISRDDSKNSIYLQMNSLKTEDTAVYYCHYVHYASASTVLPAFGVDAWGQGTTVTVSS
VL: DIVMTQSPLSLPVTPGEPASISCQASQELVHMNRNTYLHWYQQKPGQAPRLLIYKVSNRFPGVPDRFSGSGSGTDFTLKISRVEAEDVGVYYCAQGTSVPFTFGQGTKLEIK
B17: H183/L072 VH F27D (antibody, name in Kabat numbering, V domains shown)
VH: QVQLVESGGGLVQPGRSLRLSCAASGDTFSNAWMHWVRQAPGKGLEWVAQIKDKGNAYAAYYAPSVKGRFTISRDDSKNSIYLQMNSLKTEDTAVYYCHYVHYASASTVLPAFGVDAWGQGTTVTVSS
VL: DIVMTQSPLSLPVTPGEPASISCQASQELVHMNRNTYLHWYQQKPGQAPRLLIYKVSNRFPGVPDRFSGSGSGTDFTLKISRVEAEDVGVYYCAQGTSVPFTFGQGTKLEIK
B18: H183/L072 VH F27H (antibody, name in Kabat numbering, V domains shown)
VH: QVQLVESGGGLVQPGRSLRLSCAASGHTFSNAWMHWVRQAPGKGLEWVAQIKDKGNAYAAYYAPSVKGRFTISRDDSKNSIYLQMNSLKTEDTAVYYCHYVHYASASTVLPAFGVDAWGQGTTVTVSS
VL: DIVMTQSPLSLPVTPGEPASISCQASQELVHMNRNTYLHWYQQKPGQAPRLLIYKVSNRFPGVPDRFSGSGSGTDFTLKISRVEAEDVGVYYCAQGTSVPFTFGQGTKLEIK
B19: H183/L072 VH F27K (antibody, name in Kabat numbering, V domains shown)
VH: QVQLVESGGGLVQPGRSLRLSCAASGKTFSNAWMHWVRQAPGKGLEWVAQIKDKGNAYAAYYAPSVKGRFTISRDDSKNSIYLQMNSLKTEDTAVYYCHYVHYASASTVLPAFGVDAWGQGTTVTVSS
VL: DIVMTQSPLSLPVTPGEPASISCQASQELVHMNRNTYLHWYQQKPGQAPRLLIYKVSNRFPGVPDRFSGSGSGTDFTLKISRVEAEDVGVYYCAQGTSVPFTFGQGTKLEIK
B20: H183/L072 VH F27R (antibody, name in Kabat numbering, V domains shown)
VH: QVQLVESGGGLVQPGRSLRLSCAASGRTFSNAWMHWVRQAPGKGLEWVAQIKDKGNAYAAYYAPSVKGRFTISRDDSKNSIYLQMNSLKTEDTAVYYCHYVHYASASTVLPAFGVDAWGQGTTVTVSS
VL: DIVMTQSPLSLPVTPGEPASISCQASQELVHMNRNTYLHWYQQKPGQAPRLLIYKVSNRFPGVPDRFSGSGSGTDFTLKISRVEAEDVGVYYCAQGTSVPFTFGQGTKLEIK

Molecular target: T1, Human CD3eg linker (human)
T1 construct: Single chain: epsilon and gamma subunits of human CD3 joined by a 29-mer linker, Flag-tag at the C-terminus; also called recombinant human CD3
T1 chain: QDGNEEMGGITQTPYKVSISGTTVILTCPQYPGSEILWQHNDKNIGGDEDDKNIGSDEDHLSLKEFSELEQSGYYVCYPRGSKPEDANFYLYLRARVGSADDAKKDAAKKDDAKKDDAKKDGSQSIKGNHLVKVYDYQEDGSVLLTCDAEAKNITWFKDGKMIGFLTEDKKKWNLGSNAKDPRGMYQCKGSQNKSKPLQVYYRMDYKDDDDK
Experiment: Biacore SPR, vs template H183/L072

Which “fold change of affinity” value does the source give for B1 here?
Its value is 0.7 fold.

How did the “fold change of affinity” value turn out when B2 was run?
Its value is 0 fold.

For B3, which “fold change of affinity” value is on record?
Its value is 0 fold.

How did the “fold change of affinity” value turn out when B4 was run?
The value was 0.3 fold.

Which “fold change of affinity” value does the source give for B5 here?
The value was 0 fold.

Which “fold change of affinity” value does the source give for B6 here?
The value was 0.4 fold.

B7 was tested. Which “fold change of affinity” value did it give?
The value was 0.5 fold.

For B8, which “fold change of affinity” value is on record?
The value was 0 fold.

B9 was tested. Which “fold change of affinity” value did it give?
Its value is 0.5 fold.

Which “fold change of affinity” value does the source give for B10 here?
Its value is 0.6 fold.

B11 was tested. Which “fold change of affinity” value did it give?
Its value is 0.4 fold.

How did the “fold change of affinity” value turn out when B12 was run?
Its value is 0 fold.

How did the “fold change of affinity” value turn out when B13 was run?
Its value is 0.2 fold.

With B14 as the binder, how does the “fold change of affinity” value read?
Its value is 0 fold.

For B15, which “fold change of affinity” value is on record?
The value was 0 fold.

How did the “fold change of affinity” value turn out when B16 was run?
Its value is 0 fold.

B17 was tested. Which “fold change of affinity” value did it give?
The value was 0 fold.

With B18 as the binder, how does the “fold change of affinity” value read?
The value was 0.1 fold.

For B19, which “fold change of affinity” value is on record?
Its value is 0.3 fold.

For B20, which “fold change of affinity” value is on record?
The value was 0.2 fold.
